Laboratory results from article PMC7098737.
Several values for one entry are separate records, joined by “and”; a condition that tells them apart may be missing. Equal entries are not always repeated.

How the values were obtained:
[1] = molecular target: M2-Strep-tag II fusion protein (Strep II tag, 6xHis tag, full-length human MBL2) (human) (UniProt P11226); experiment: native gel or EMSA; native PAGE of purified M1 and of purified M2; oligomer size from the apparent molecular weight against the monomer's size by SDS-PAGE; for M2 the names trimer, tetramer, pentamer count subunits of three 32-kDa chains
[2] = molecular target: recombinant human mannan-binding lectin M1 (6xHis, MAKT, human IgG1 Fc C220-G446, Arg linker, human MBL2 neck and CRD 81-228) (human) (UniProt P11226); experiment: as above

stoichiometry N [1] | stoichiometry N [2] [monomers] | Substance
4 and 3 and 5 | – | M2-Strep-tag II fusion protein (Strep II tag, 6xHis tag, full-length human MBL2) (from UniProt P11226 21-248) (natural protein)
– | 6 | recombinant human mannan-binding lectin M1 (6xHis, MAKT, human IgG1 Fc C220-G446, Arg linker, human MBL2 neck and CRD 81-228) (from UniProt P11226 101-248) (Fc fusion)
